According to paper PMC5758883, “Analysis of the natively unstructured RNA/protein-recognition core in the Escherichia coli RNA degradosome and its interactions with regulatory RNA/Hfq complexes” (Nucleic Acids Research, 2017):

T1: RNase E 603–850 with a C-terminal hexahistidine tag (Escherichia coli, UniProt P21513 603-850)
T1 construct: also called Rne; source: E. coli BL21 (DE3), co-expressed with RhlB (pRSFDuet-1) with or without enolase (pET11-a); alone: RhlB and enolase removed on the column with 8 M urea; not shown: His6, C-terminal, kept
T1 sequence (looked up): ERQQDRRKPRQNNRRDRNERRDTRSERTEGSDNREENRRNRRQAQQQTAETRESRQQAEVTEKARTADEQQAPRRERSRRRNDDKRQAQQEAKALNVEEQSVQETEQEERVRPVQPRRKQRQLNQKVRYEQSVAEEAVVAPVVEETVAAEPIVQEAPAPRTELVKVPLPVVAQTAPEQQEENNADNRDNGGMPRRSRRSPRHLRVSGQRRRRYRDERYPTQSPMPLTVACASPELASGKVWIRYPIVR

B1: enolase (enzyme, Escherichia coli)
chain: MSKIVKIIGREIIDSRGNPTVEAEVHLEGGFVGMAAAPSGASTGSREALELRDGDKSRFLGKGVTKAVAAVNGPIAQALIGKDAKDQAGIDKIMIDLDGTENKSKFGANAILAVSLANAKAAAAAKGMPLYEHIAELNGTPGKYSMPVPMMNIINGGEHADNNVDIQEFMIQPVGAKTVKEAIRMGSEVFHHLAKVLKAKGMNTAVGDEGGYAPNLGSNAEALAVIAEAVKAAGYELGKDITLAMDCAASEFYKDGKYVLAGEGNKAFTSEEFTHFLEELTKQYPIVSIEDGLDESDWDGFAYQTKVLGDKIQLVGDDLFVTNTKILKEGIEKGIANSILIKFNQIGSLTETLAAIKMAKDAGYTAVISHRSGETEDATIADLAVGTAAGQIKTGSMSRSDRVAKYNQLIRIEEALGEKAPYNGRKEIKGQA
notes: E. coli enolase; No tag is named for enolase in either construct; also called glycolytic enzyme enolase; enolase dimer; source: E. coli Rosetta (DE3), pETDuet, co-expressed and co-purified with His6-AR2–EBS
B2: DEAD-box helicase RhlB (enzyme, Escherichia coli, UniProt P0A8J8 1-421, looked up)
chain: MSKTHLTEQKFSDFALHPKVVEALEKKGFHNCTPIQALALPLTLAGRDVAGQAQTGTGKTMAFLTSTFHYLLSHPAIADRKVNQPRALIMAPTRELAVQIHADAEPLAEATGLKLGLAYGGDGYDKQLKVLESGVDILIGTTGRLIDYAKQNHINLGAIQVVVLDEADRMYDLGFIKDIRWLFRRMPPANQRLNMLFSATLSYRVRELAFEQMNNAEYIEVEPEQKTGHRIKEELFYPSNEEKMRLLQTLIEEEWPDRAIIFANTKHRCEEIWGHLAADGHRVGLLTGDVAQKKRLRILDEFTRGDLDILVATDVAARGLHIPAVTHVFNYDLPDDCEDYVHRIGRTGRAGASGHSISLACEEYALNLPAIETYIGHSIPVSKYNPDALMTDLPKPLRLTRPRTGNGPRRTGAPRNRRRSG
notes: E. coli DEAD-box helicase RhlB; HDX-MS covers both RecA-like domains and the tail 400–421, so probably the whole protein; also called RhIB

Experiments:
[1] = target: the molecule itself; assay: native MS; native ESI and ion-mobility mass spectrometry of the co-purified ternary and binary complexes
[2] = target: T1, RNase E 603–850 with a C-terminal …; assay: SEC-MALS; co-expressed, co-purified ternary and binary complexes loaded at 5.6 and 4.0 mg/ml on Superdex 200 10/300; 50 mM Tris–HCl pH 7.5, 100 mM NaCl, 50 mM KCl, 5 mM MgCl2, 2 mM DTT; details: both partners purified

| Binder | stoichiometry N [1] | stoichiometry N [2] |
| --- | --- | --- |
| B1 | 2 | 2 |
| B2 |  | 1 |
